Reference: patent US20020049180

Tests used:
GST-Chk2(1-222) = GST-Chk2(1-222) (UniProt O96017)
[1] = molecular target: GST-fusion protein containing amino acids 227-325 of KIAA0175 (UniProt Q14680)
[2] = molecular target: GST-fusion protein containing amino acids 327-517 of KIAA0175 (UniProt Q14680)
[3] = molecular target: GST-fusion protein containing amino acids 42-182 of KIAA0175 (UniProt Q14680)
GST-hDM2 (330-491) = GST-hDM2 (330-491) (UniProt Q00987)
GST-p53 (1-106) = GST-p53 (1-106) (UniProt P04637)
[4] = molecular target: KIAA0175 (327-517) with serine 391 mutated to alanine (UniProt Q14680)

## Ataxia telangiectasia mutated (ATM)
GST-Chk2(1-222)
  in vitro phosphorylation by ATM immunoprecipitates: KIAA0175 (327-517) phosphorylation was comparable to that seen with several known substrates of ATM included in the same assay, ... GST-Chk2(1-222)
[1]
  in vitro phosphorylation by ATM immunoprecipitates: amino acids 227-325 with no SQ sites, were not phosphorylated
[2]
  in vitro phosphorylation by ATM immunoprecipitates: A fusion including amino acids 327-517 harboring S^391Q was a substrate for ATM
[3]
  in vitro phosphorylation by ATM immunoprecipitates: amino acid 42-182 (containing S100Q and S^125Q) ... were not phosphorylated
GST-hDM2 (330-491)
  in vitro phosphorylation by ATM immunoprecipitates: KIAA0175 (327-517) phosphorylation was comparable to that seen with several known substrates of ATM included in the same assay, ... GST-hDM2 (330-491)
GST-p53 (1-106)
  in vitro phosphorylation by ATM immunoprecipitates: KIAA0175 (327-517) phosphorylation was comparable to that seen with several known substrates of ATM included in the same assay, GST-p53 (1-106)
[4]
  irradiation induced phosphorylation by ATM: Mutation of serine 391 to alanine completely abolished the irradiation induced phosphorylation by ATM
